# Reference: PMC8835902, “DNA Polymerase-Parental DNA Interaction Is Essential for Helicase-Polymerase Coupling during Bacteriophage T7 DNA Replication” (International Journal of Molecular Sciences, 2022)
# Legend:
# [1] = molecular target: T1, WTgp5-trx complex (T7 gp5 DNA polymerase D5A, E7A with thioredoxin) (bacteriophage T7 | , UniProt P00581 1-704; P0AA25 1-109 = thioredoxin, D5A | E7A); assay: native gel or EMSA; supershift: 10 nM fork DNA (2 gaps) pre-incubated with gp5-trx variants (60-100 nM) 15 min at 25 °C, then rising amounts of hexameric EQgp4, 15 min at 25 °C; 20 mM Hepes pH 7.5, 1 mM EDTA, 100 mM KCl, 0.1 mM βME, 5% glycerol, 0.10 mg/mL BSA; 4% polyacrylamide gel; fitted to the Hill equation; conditions: both partners purified
# T1 construct: gp5 in pET15b, trxA in pRSFDuet; no tag is mentioned and purification was by heparin and ion exchange; also called DNA-WTgp5; source: E. coli BL21 (DE3), co-expressed, purified (Heparin HP, MonoQ)
# [2] = molecular target: T2, K3Dgp5-trx complex (T7 gp5 K545D, K549D, K553D with thioredoxin) (bacteriophage T7 | , UniProt P00581 1-704; P0AA25 1-109 = thioredoxin, D5A | E7A | K545D | K549D | K553D); assay: as above; conditions: both partners purified
# T2 construct: bacteriophage T7 gp5 DNA polymerase (D5A, E7A) with the positively charged cleft mutations K545D, K549D, K553D; Mutagenesis on the plasmid encoding WTgp5 (D5A, E7A); also called DNA-K3Dgp5; source: E. coli BL21 (DE3), co-expressed, purified (Heparin HP, MonoQ)
binder,measurement,setting,value
"T7 gp4 helicase-primase, active site mutant E343Q (enzyme, bacteriophage T7, UniProt P03692 1-566, looked up, bacteriophage T7 gp4 helicase-primase, full-length, with E343Q; modified pET28a with histidine tags and a PreScission site; Added as 'hexameric EQgp4' in the EMSA; also called EQgp4; E343Q gp4; source: E. coli C3013I (T7 Express lysY/Iq), purified (Histrap, MonoQ)) MDNSHDSDSVFLYHIPCDNCGSSDGNSLFSDGHTFCYVCEKWTAGNEDTKERASKRKPSGGKPMTYNVWNFGESNGRYSALTARGISKETCQKAGYWIAKVDGVMYQVADYRDQNGNIVSQKVRDKDKNFKTTGSHKSDALFGKHLWNGGKKIVVTEGEIDMLTVMELQDCKYPVVSLGHGASAAKKTCAANYEYFDQFEQIILMFDMDEAGRKAVEEAAQVLPAGKVRVAVLPCKDANECHLNGHDREIMEQVWNAGPWIPDGVVSALSLRERIREHLSSEESVGLLFSGCTGINDKTLGARGGEVIMVTSGSGMGKSTFVRQQALQWGTAMGKKVGLAMLQESVEETAEDLIGLHNRVRLRQSDSLKREIIENGKFDQWFDELFGNDTFHLYDSFAEAETDRLLAKLAYMRSGLGCDVIILDHISIVVSASGESDERKMIDNLMTKLKGFAKSTGVVLVVICHLKNPDKGKAHEEGRPVSITDLRGSGALRQLSDTIIALERNQQGDMPNLVLVRILKCRFTGDTGIAGYMEYNKETGWLEPSSYSGEEESHSESTDWSNDTDF",Kd with fork DNA (gp4 on fork DNA pre-bound to gp5-trx),[1],8 ± 1 nM
same,Kd with fork DNA (gp4 on fork DNA pre-bound to gp5-trx),[2],6 ± 1 nM
